In the supplement of paper PMC9116672:
± gives the standard deviation of the averaged measurements or the uncertainty stated by the source.

Assays:
[1] = duplex melting temperature (HRM, EvaGreen); higher = more stable duplex
Procedure, shortened: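 After 1:1 annealing at 25 μM, complementary phosphodiester or phosphorothioate strands (Rp/Sp mixtures) were brought to 1–20 μM duplex in NNE buffer (500 mM NaCl, pH 7.0) with 1× EvaGreen and heated at 0.1°C/s from 37°C to 97°C while a LightCycler96 monitored fluorescence (470/514 nm). The melting temperature is the negative dF/dT peak reported by the instrument software, averaged over replicates with a clear peak.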

[2] = duplex formation free energy ΔG50 (Van't Hoff fit of HRM Tm); higher = less stable duplex; details: temperature for dG: 50 °C, NaCl: 500 mM (unadjusted)
Procedure, shortened: (§1)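 DNA duplexes with phosphodiester or phosphorothioate strands (mixed Rp/Sp for the latter) were annealed 1:1 and melted at 1–20 μM in four replicate samples, using 1× NNE buffer (500 mM NaCl, pH 7.0) with 1× EvaGreen on a LightCycler96 from 37 to 97°C at 0.1°C/s. Enthalpy and entropy come from a linear Van't Hoff regression of 1/Tm, with Tm taken as the peak of -dF/dT, against ln(CT/4), and free energy is extrapolated from that fit to a set temperature, which is 50°C. Values are not salt-adjusted, and errors are fit standard deviations.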

[3] = duplex formation enthalpy ΔH (Van't Hoff fit of HRM Tm); higher = less exothermic duplex formation; details: temperature for dG: 50 °C, NaCl: 500 mM (unadjusted)
Procedure, shortened: as §1

[4] = duplex formation entropy ΔS (Van't Hoff fit of HRM Tm); higher = smaller entropy loss on duplex formation; details: temperature for dG: 50 °C, NaCl: 500 mM (unadjusted)
Procedure, shortened: as §1

[5] = duplex concentration 1 µM, backbone: PO-PO (both strands phosphodiester DNA)
[6] = duplex concentration 1 µM, backbone: PS-PO (listed strand fully phosphorothioate, complement phosphodiester)
[7] = duplex concentration 1 µM, backbone: PS-PS (both strands fully phosphorothioate)
[8] = duplex concentration 2.5 µM, backbone: PO-PO (both strands phosphodiester DNA)
[9] = duplex concentration 2.5 µM, backbone: PS-PO (listed strand fully phosphorothioate, complement phosphodiester)
[10] = duplex concentration 2.5 µM, backbone: PS-PS (both strands fully phosphorothioate)
[11] = duplex concentration 5 µM, backbone: PO-PO (both strands phosphodiester DNA)
[12] = duplex concentration 5 µM, backbone: PS-PO (listed strand fully phosphorothioate, complement phosphodiester)
[13] = duplex concentration 5 µM, backbone: PS-PS (both strands fully phosphorothioate)
[14] = duplex concentration 7.5 µM, backbone: PO-PO (both strands phosphodiester DNA)
[15] = duplex concentration 7.5 µM, backbone: PS-PO (listed strand fully phosphorothioate, complement phosphodiester)
[16] = duplex concentration 7.5 µM, backbone: PS-PS (both strands fully phosphorothioate)
[17] = duplex concentration 10 µM, backbone: PO-PO (both strands phosphodiester DNA)
[18] = duplex concentration 10 µM, backbone: PS-PO (listed strand fully phosphorothioate, complement phosphodiester)
[19] = duplex concentration 10 µM, backbone: PS-PS (both strands fully phosphorothioate)
[20] = duplex concentration 15 µM, backbone: PO-PO (both strands phosphodiester DNA)
[21] = duplex concentration 15 µM, backbone: PS-PO (listed strand fully phosphorothioate, complement phosphodiester)
[22] = duplex concentration 15 µM, backbone: PS-PS (both strands fully phosphorothioate)
[23] = duplex concentration 20 µM, backbone: PO-PO (both strands phosphodiester DNA)
[24] = duplex concentration 20 µM, backbone: PS-PO (listed strand fully phosphorothioate, complement phosphodiester)
[25] = duplex concentration 20 µM, backbone: PS-PS (both strands fully phosphorothioate)
[26] = backbone: PO-PO (both strands phosphodiester DNA)
[27] = backbone: PS-PO (listed strand fully phosphorothioate, complement phosphodiester)
[28] = backbone: PS-PS (both strands fully phosphorothioate)

Row | Sequence | duplex melting temperature [1, 5] [°C] | duplex melting temperature [1, 6] [°C] | duplex melting temperature [1, 7] [°C] | duplex melting temperature [1, 8] [°C] | duplex melting temperature [1, 9] [°C] | duplex melting temperature [1, 10] [°C] | duplex melting temperature [1, 11] [°C] | duplex melting temperature [1, 12] [°C] | duplex melting temperature [1, 13] [°C] | duplex melting temperature [1, 14] [°C] | duplex melting temperature [1, 15] [°C] | duplex melting temperature [1, 16] [°C] | duplex melting temperature [1, 17] [°C] | duplex melting temperature [1, 18] [°C] | duplex melting temperature [1, 19] [°C] | duplex melting temperature [1, 20] [°C] | duplex melting temperature [1, 21] [°C] | duplex melting temperature [1, 22] [°C] | duplex melting temperature [1, 23] [°C] | duplex melting temperature [1, 24] [°C] | duplex melting temperature [1, 25] [°C] | duplex formation free energy ΔG50 [2, 26] [kcal/mol] | duplex formation free energy ΔG50 [2, 27] [kcal/mol] | duplex formation free energy ΔG50 [2, 28] [kcal/mol] | duplex formation enthalpy ΔH [3, 26] [kcal/mol] | duplex formation enthalpy ΔH [3, 27] [kcal/mol] | duplex formation enthalpy ΔH [3, 28] [kcal/mol] | duplex formation entropy ΔS [4, 26] [cal/mol/K] | duplex formation entropy ΔS [4, 27] [cal/mol/K] | duplex formation entropy ΔS [4, 28] [cal/mol/K]
1 | GTCATTGTGCTTTTGC | 60.6 | 49.8 ± 0.38 | 45.054 ± 0.018 | 63.26 ± 0.54 | 52.96 ± 0.069 | 46.77 ± 0.14 | 65.29 ± 0.25 | 55.24 ± 0.19 | 48.65 ± 0.052 | 66.35 ± 0.14 | 56.46 ± 0.16 | 49.65 ± 0.053 | 67.27 ± 0.084 | 57.2 ± 0.17 | 50.58 ± 0.096 | 68.53 ± 0.17 | 58.37 ± 0.089 | 51.65 ± 0.14 | 69.4 ± 0.17 | 59.15 ± 0.096 | 52.76 ± 0.13 | -12.27 ± 0.096 | -9.798 ± 0.043 | -8.432 ± 0.028 | -78.5 ± 1.9 | -69.8 ± 2.2 | -79.9 ± 3.5 | -205 ± 5.7 | -186 ± 6.7 | -221 ± 11
2 | ACTCGCTCTACCTTAAT | 60.43 ± 0.52 |  | 46.7 ± 0.53 | 62.88 ± 0.38 | 55.24 ± 0.45 | 50.2 ± 0.22 | 65.23 ± 0.53 | 57.69 ± 0.21 | 52.44 ± 0.085 | 66.57 ± 0.5 | 59.03 ± 0.074 | 53.72 ± 0.14 | 67.63 ± 0.18 | 59.946 ± 0.043 | 54.68 ± 0.21 | 69.17 ± 0.14 | 61.16 ± 0.2 | 55.75 ± 0.19 | 70.4 ± 0.34 | 62.06 ± 0.28 | 56.8 ± 0.2 | -11.8 ± 0.16 | -10.27 ± 0.06 | -9.165 ± 0.027 | -68.3 ± 3.3 | -67 ± 2.1 | -63.1 ± 2 | -175 ± 9.7 | -176 ± 6.4 | -167 ± 6.3
3 | AGACATCCCATACGAGCATCCA | 74.67 ± 0.5 | 67.6 ± 0.69 | 58.4 ± 0.91 | 75.64 ± 0.58 | 69.1 ± 0.53 | 60.9 ± 0.71 | 77.03 ± 0.46 | 70.2 ± 0.62 | 62.6 ± 0.4 | 78.03 ± 0.27 | 71.19 ± 0.51 | 63.56 ± 0.19 | 79.049 ± 0.057 | 71.87 ± 0.23 | 64.391 ± 0.055 | 79.985 ± 0.077 | 72.68 ± 0.15 | 65.3 ± 0.086 | 80.728 ± 0.069 | 73.314 ± 0.051 | 65.89 ± 0.11 | -17.5 ± 0.61 | -16.1 ± 0.3 | -12.13 ± 0.08 | -112 ± 7.7 | -124 ± 4.9 | -90.8 ± 2 | -292 ± 22 | -333 ± 14 | -243 ± 6
4 | CAAACTTAGTAATCACGCCCAGCAACCA | 78.3 ± 0.4 | 71.41 ± 0.5 | 62.3 ± 0.89 | 79.54 ± 0.39 | 72.56 ± 0.53 | 64.34 ± 0.43 | 80.55 ± 0.61 | 73.83 ± 0.46 | 65.81 ± 0.35 | 81.42 ± 0.21 | 74.22 ± 0.47 | 66.74 ± 0.11 | 82.09 ± 0.11 | 74.81 ± 0.22 | 67.319 ± 0.064 | 82.922 ± 0.079 | 75.66 ± 0.16 | 67.904 ± 0.048 | 83.591 ± 0.062 | 76.275 ± 0.049 | 68.51 ± 0.1 | -21 ± 0.74 | -19 ± 0.52 | -13.9 ± 0.17 | -141 ± 8.4 | -149 ± 7.5 | -112 ± 3.5 | -372 ± 24 | -404 ± 22 | -303 ± 10
5 | GCCCGAGCATGACTGCG |  | 65.4 ± 0.24 | 59.02 ± 0.17 | 75.41 ± 0.19 | 68.14 ± 0.36 | 61.59 ± 0.3 | 76.97 ± 0.085 | 70 ± 0.11 | 63.37 ± 0.21 | 77.92 ± 0.1 | 71.104 ± 0.068 | 64.41 ± 0.16 | 78.54 ± 0.1 | 71.926 ± 0.031 | 65.09 ± 0.084 | 79.72 ± 0.12 | 73.02 ± 0.13 | 66.12 ± 0.12 | 80.63 ± 0.26 | 73.82 ± 0.14 | 66.8 ± 0.27 | -16.3 ± 0.36 | -13.6 ± 0.11 | -12.16 ± 0.1 | -98.8 ± 4.5 | -83.7 ± 1.9 | -86.9 ± 2.4 | -255 ± 13 | -217 ± 5.5 | -231 ± 7.1
6 | ACTGTATCGCCCTA |  |  | 43.6 ± 0.65 | 64.04 ± 0.18 |  | 47.26 ± 0.29 | 65.3 ± 0.12 | 57.4 ± 0.95 | 50.2 ± 0.33 | 66.7 ± 0.24 | 60.1 ± 0.84 | 51.8 ± 0.45 | 68.35 ± 0.2 | 61.56 ± 0.48 | 54.55 ± 0.45 | 69.55 ± 0.22 | 62.93 ± 0.27 | 57.15 ± 0.42 | 70.51 ± 0.2 | 63.73 ± 0.26 | 59.2 ± 0.59 | -12 ± 0.31 | -10.2 ± 0.24 | -8.829 ± 0.042 | -70.4 ± 6 | -56.7 ± 6.8 | -40.3 ± 2.8 | -181 ± 18 | -144 ± 20 | -97.5 ± 8.7
